The values below come from paper PMC8239432, “Cross-Reactive SARS-CoV-2 Neutralizing Antibodies From Deep Mining of Early Patient Responses” (Frontiers in Immunology, 2021).

Details in all cases: both partners purified
The target in test [1] is T1, SARS-CoV-2 RBD-rCD4-Avi-His (SARS-CoV-2 (reference sequence), UniProt P0DTC2).
T1 construct: also called RBD-rCD4-His
Nature of the test: SPR.

The target of test [2] is T2, SARS CoV-2 RBD (Acro BioSystems, SPDC52H3) (SARS-CoV-2 (reference sequence), UniProt P0DTC2).
T2 construct: source: bought: Acro BioSystems
Nature of the test: BLI.

The target in another test is T3, SARS-CoV-1 RBD (SARS-CoV-1 (SARS-CoV); isolate not …, UniProt P59594).
T3 construct: also called RBD subdomain of the SARS-CoV-1 spike protein; source: Expi293F, purified (Nickel-NTA agarose)
Nature of the test: binding assay based on time resolved fluorescence (TRF).

Test [3] deals with T4, MERS-CoV S1 with a His tag (MERS-CoV, isolate EMC/2012 (from …, UniProt K0BRG7)).
T4 construct: source: bought: Sino Biological
The test is described as above.

The target in test [4] is T5, SARS-CoV-2 RBD-rCD4-Avi-His (SARS-CoV-2, UniProt P0DTC2).
T5 construct: also called RBD-rCD4-His; monomeric RBD; source: Expi293F, purified (Nickel-NTA agarose)
Nature of the test: SPR. (In general: SPR reads the build-up and loss of mass on a sensor chip optically.)

B1: ION_300 IgG1 (antibody, V domains shown)
VH: QVQLVQSGAEVKKPGESLKISCKGSGYSFTSYWIGWVRQMPGKGLEWMGIIYPGDSDTRYSPSFQGQVTISADKSISTAYLQWSSLKASDTAMYYCARHPSPYYYGSGSYSGGFDYWGQGTLVTVSS
VL: DIVMTQSPGTLSLSPGERATLSCRASQSVSSSYLAWYQQKPGQAPRLLIYGASTRATGIPARFSGSGSGTEFTLTISSLQSEDFAVYYCQQYDNWPLMHTFGQGTKLEIK
notes: source: ExpiCHO or Expi293, purified (protein A, SEC)
Take B1: in test [1], binding was put at a Kd of 3.4 nM; the koff – broadly, the rate constant with which the complex falls apart – was determined as 0.000775 s⁻¹; the kon (in general, a measure of how fast the partners come together) is 252000 M⁻¹ s⁻¹.

B2: ION_300 IgG1 (antibody, V domains shown)
VH: B1 VH
VL: B1 VL
Consider B2, for which the figures for the binding result (in test [2]; with SARS-CoV-1 RBD; in test [3]) were “binds”, “binds” and “no binding”, respectively.

B3: ION_360 IgG1 (antibody, V domains shown)
VH: EVQLVQSGGGLVKPGGSLRLSCAASGITVSSNYMSWVRQAPGKGLEWVSVIYSGGSTYYADSVKGRFTISRDNSKNTLYLQMNSLRAEDTAVYYCARGEGGSIVGVTSDYWGQGTLVTVSS
VL: DIQMTQSPSSLSASVGDRVTITCRASQSISRYLNWYQQKPGKAPKLLIYAASSLQSGVPSRFSGSGSETEFTLTISSLHPDDFATYYCQQSYSTLPYTFGQGTKVEIK
notes: as for B1
In test [1], B3 had a dissociation rate constant (koff) of 0.000279 s⁻¹ and a kon of 188000 M⁻¹ s⁻¹.

B4: ION_360 IgG1 (antibody, V domains shown)
VH: B3 VH
VL: B3 VL
In the case of B4, the Kd (commonly the free concentration of one partner at which half of the binding sites on the other are occupied at equilibrium, for simple one-to-one binding) in test [4] was found to be 1.5 nM.
